# Variants at the floor of the assay were thinned out.
# B1: TPR 5TU (parent)
# chain: GGAUCUUCUCGAUCUAACAAAAAAGACAAAUCUGCCACAAAGCUUGAGAGCAUCUUCGGAUGCAGAGGCGGCAGCCUUCGGUGGCGCGAUAGCGCCAACGUUCUCAACUAUGACACGCAAAACGCGUGCUCCGUUGAAUGGAGUUUAUCAUG
# Variants of: B1
# Test: polymerase ribozyme fitness, log enrichment relative to wild type (log ratio); higher = more active; in vitro selection for triplet polymerase activity
# Method in brief: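 To select mutant libraries of each subunit of a heterodimeric triplet polymerase ribozyme, built by PCR and transcribed, each was annealed with a biotinylated primer, partner subunit and triplets, then incubated frozen at −7 °C. Extended constructs were gel-excised, captured on streptavidin beads and amplified by RT-PCR, in one round carried out in triplicate. Illumina sequencing of input and output libraries kept genotypes with ≥10 input reads and ≥1 read per output. Fitness is the base-2 logarithm of genotype enrichment relative to wild-type enrichment, from inverse-variance-weighted replicate averages.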
row,Variant,polymerase ribozyme fitness (log ratio)
1,A52G U53A A119U G126C,0.147
2,A52C U53G C72U G83A G124A,≤ -4.2
3,U53A C85G G133C A150C,≤ -4.2
4,U53A C57G C95G,-4.01
5,A52G G83A,-0.0714
6,A52G U53A G84A,-0.8
7,U53A A64G,-3.41
8,A52U A137G,-2.89
9,A52G C95G A107G A120G U139C,-4.13
10,A52C C93U G94C,-3.36
11,U53A C96G,-2.55
12,A52U U53A C57A G58C A89U,0.000593
13,U53A A73C,-3.99
14,A52G G74C C87A A113U C125A G140U,≤ -4.2
15,A52C C85G G92U,≤ -4.2
16,U53A C57A U102G C125A U134A,≤ -4.2
17,A52G A106C,-0.69
18,A52G C72U G81A G86A C103G A122C,≤ -4.2
19,A52G G86A C93A G143A,≤ -4.2
20,A52U G84A,-2.18
21,U53A C99U,-2.58

row,Variant,polymerase ribozyme fitness (log ratio)
1,A52C G88A,-3.57
2,A52C U53A U148G,≤ -4.2
3,A52C U61A G65A C95A G141U,-2.36
4,U53A A107U U144G,-2.6
5,A52G C54A C69A C87G U90C G100U C103A C105G,≤ -4.2
6,A52C C118U G143A U144C,-3.94
7,U53A C87A A89U G141C,≤ -4.2
8,A52U G84C C116U U146G,-4.11
9,A52G C57A G58A G83U C95U,-0.758
10,A52U C79A A110U C116U A120U C131G,≤ -4.2
11,A52U C76U G86C G126C G152U,≤ -4.2
12,A52G A60U G71A A121U U135G U148A,-4.18
13,A52C C95U C99U,-3.18
14,A52G G58U,-0.0148
15,A52C G80C G84U C93U,≤ -4.2
16,U53A C54U C85G,-2.55
17,U53A C72G C85U U127A,≤ -4.2
18,U53A C76G G92A A107C G124U C149A,≤ -4.2
19,U53A A73G G74C C85A U90C,≤ -4.2
20,A52U U55A U56G A66G C99A C132U,≤ -4.2
21,A52G C69G C85G A97U G126A G141U,≤ -4.2

row,Variant,polymerase ribozyme fitness (log ratio)
1,A52G G83C C93U,-3.66
2,A52G C57U C75G A91U C95G C123A,-4.05
3,A52G C87U,-1.3
4,A52G C87U C116G A122C G136U,-2.85
5,A52U C129U,-2.91
6,A52G C57A C79U C85A C116U A122G,≤ -4.2
7,A52U C95U,-1.52
8,A52C G71A C85A G94C G141U,≤ -4.2
9,A52G G152C,-3.59
10,A52U C123G,-1.97
11,A52G A142U,-0.597
12,A52G G83U C96A U101C G124A U145A C149U,-2.95
13,A52C C108A,≤ -4.2
14,A52G G141U,1
15,A52C C75U C85G C95G,≤ -4.2
16,U53A C75U G84C,-2.82
17,A52C G84A U130C,-0.715
18,A52C U55A A91G U111A U139G,≤ -4.2
19,A52U U53G G88C A91C,≤ -4.2
20,A52G G58C G59C C96G A150U,-3.59
21,A52G G141U U145C G152A,-2.27

row,Variant,polymerase ribozyme fitness (log ratio)
1,A52U G143U U148A,-4.01
2,A52C C76A,≤ -4.2
3,A52C C76G,≤ -4.2
4,A52U G94A G133U G143U,-3.88
5,U53A A73G G86A G92U C95U G143U,≤ -4.2
6,A52G G59A G92A,-3.59
7,A52G G71C C95A C131A U139A,≤ -4.2
8,A52G A106U U135A,-1.7
9,A52G G62A C76U U145A,-2.04
10,A52G C57A G84A,-0.599
11,A52U A89U C96A,-2.98
12,A52G C93G,-3.95
13,A52G C93A,-3.25
14,A52G C93U,-1.74
15,U53A C54A U82A G141C,-2.84
16,A52C G88A C95U C99U A110U,-4.07
17,A52G U56G G86A C95U A142C,≤ -4.2
18,A52C U56A C96A A110G,-3.99
19,A52C C93U U102G,≤ -4.2
20,A52G G84A G94U G143A,≤ -4.2
